Substitutions are numbered along the chain they refer to.
Experiments:
[1] = test system: cancer, cardiac and neuronal cell lines; assay: Categorisation of active ADPs as pro-/anti-apoptotic (Example 15); settings: criteria of Example 15
[2] = Effectiveness of ADPs (Example 1, Table 6; cell death assays of FIGS. 10-13); type: cell-based; settings: ADPs with N-terminal tumor penetrating peptide and C-terminal fluorescent tag; graded in words
Description: FIGS. 10A-C show the sequences mapped, peptide blots, imaging to show expression and cell death assays for these three peptides. A) PPA-1 (PEPTIDE23) (SEQ ID NO:23), B) PPA4 (PEPTIDE19) (SEQ ID NO:19), C) PPA10 (PEPTIDE16 including FF at C-terminus) (SEQ ID NO:16).
FIGS. 11A-B show the sequences mapped, peptide blots, imaging to show expression and cell death assays for these HSP-70 peptides. A) PHA4 (PEPTIDE5) (SEQ ID NO:5), B) PHA5 (PEPTIDE13 plus C-terminal L) (SEQ IDS NO: 13).
FIGS. 12A-C show the sequences mapped, peptide blots, imaging to show expression and cell death assays for these p65 (RELA) peptides. A) PRA1 (PEPTIDE14) (SEQ ID NO:14), B) PRA8 (PEPTIDE8) (SEQ ID NO:8), C) PRA9 (SEQ ID Nos:33 and 37-45).
FIGS. 13A-D show the sequences mapped, peptide blots, imaging to show expression and cell death assays for these HSP-70 peptides. A) PAA1-1 (PEPTIDE11) (SEQ ID NO:11), B) PPA1-3 (PEPTIDE15) (SEQ ID NO:15), C) PAR1 (PEPTIDE19), D) Paint 1 (PEPTIDE7) (SEQ ID NO:7).
ADPs were first identified using Peptide SPOT analysis. Peptides were identified from AKIP1. PKAc, HSP-70 and p65 sequences. The identified ADPs were attached at the N-terminus to tumor penetrating peptide based on the CENDR rule (FIG. 9). A fluorescent tag was attached to the C-terminus for ease of visualization. […]

B1: KSQVISNAKNTVQGFKRFHGRAFSDPFVEAEKSNLAYDIVQWPTGLTGIKVTYMEEERNFTTEQVTAMLLSKLKETAESVLKKPVV (peptide)
chain: KSQVISNAKNTVQGFKRFHGRAFSDPFVEAEKSNLAYDIVQWPTGLTGIKVTYMEEERNFTTEQVTAMLLSKLKETAESVLKKPVV
[1]
  Pro-apoptotic (anti-angiogenic) category: Pro-apoptotic (anti-angiogenic)

B2: KSQVISNAKNTVQGFKRFHGRAFSDPFVEAEKSNLAYDIVQWPTGLTGIKVTYMEEERNFTIEQVTAMLLSKLKETAESVLKKPVV (peptide)
chain: B1 chain with T62I
[2]
  Effectiveness: Moderate

Reference: patent publication US11608367B2, “Peptides for angiogenic therapy” (The Regents of the University of California, priority 2018, dated 2023)
